Laboratory results published in patent US20160303232A1 (Merrimack Pharmaceuticals, Inc., priority 2015, published 2016).
Entries after “also recorded” stand apart in the source; their conditions may differ. Structures can show the parent of a compound that is named as a salt.

B1: seribantumab: human monoclonal anti-ErbB3 IgG2; heavy chain SEQ ID NO:7, light chain SEQ ID NO:8 (antibody, listed as Homo sapiens)
heavy: EVQLLESGGGLVQPGGSLRLSCAASGFTFSHYVMAWVRQAPGKGLEWVSSISSSGGWTLYADSVKGRFTISRDNSKNTLYLQMNSLRAEDTAVYYCTRGLKMATIFDYWGQGTLVTVSSASTKGPSVFPLAPCSRSTSESTAALGCLVKDYFPEPVTVSWNSGALTSGVHTFPAVLQSSGLYSLSSVVTVPSSNFGTQTYTCNVDHKPSNTKVDKTVERKCCVECPPCPAPPVAGPSVFLFPPKPKDTLMISRTPEVTCVVVDVSHEDPEVQFNWYVDGVEVHNAKTKPREEQFNSTFRVVSVLTVVHQDWLNGKEYKCKVSNKGLPAPIEKTISKTKGQPREPQVYTLPPSREEMTKNQVSLTCLVKGFYPSDIAVEWESNGQPENNYKTTPPMLDSDGSFFLYSKLTVDKSRWQQGNVFSCSVMHEALHNHYTQKSLSLSPGK
light: QSALTQPASVSGSPGQSITISCTGTSSDVGSYNVVSWYQQHPGKAPKLIIYEVSQRPSGVSNRFSGSKSGNTASLTISGLQTEDEADYYCCSYAGSSIFVIFGGGTKVTVLGQPKAAPSVTLFPPSSEELQANKATLVCLVSDFYPGAVTVAWKADGSPVKVGVETTKPSKQSNNKYAASSYLSLTPEQWKSHRSYSCRVTHEGSTVEKTVAPAECS

Assays:
[1] = system: NSCLC cell lines (A549, EKVX, H358, H322M, Calu-3, H661, H441, H1355, H430); assay: 3D spheroid proliferation assay with or without HRG and chemotherapy; type: cell-based, human; conditions: 5 nM HRG; docetaxel 111 nM, pemetrexed 1111 nM; 96hrs; three cell lines most responsive to HRG
Protocol: HRG-driven ErbB3 signaling mediates survival signaling through the PI3K/AKT pathway and has been implicated as a general mechanism that imparts insensitivity to cytotoxic chemotherapy. […] Proliferation was measured, in the presence or absence of HRG, in a panel of nine cell lines using 3D spheroid cultures.

[2] = system: human ovarian epithelial carcinoma OVCAR8 cells; assay: OVCAR8 xenograft model of ovarian cancer, combination therapy study; type: in vivo, mouse; conditions: for tumor progression over time: FIGS. 7A-7C, monotherapy versus co-administration with fixed dose of seribantumab; for tumor growth, single agent: i.p., seribantumab 300 μg Q3D, irinotecan HCl 6.25 mg/kg Q7D, gemcitabine 25 mg/kg Q7D, paclitaxel 10 mg/kg Q7D, three weeks
From the text: In these xenograft studies, the mice were obtained from Charles River Laboratories. The mice were housed in Tecniplast® Individually Ventilated polycarbonate (Makrolon®) Cages (IVC) set in climate-controlled rooms and had free access to food and acidified water. A cell suspension of 8×10^6 cells/mouse, mixed 1:1 in reduced growth factor Matrigel™ (BD Biosciences, Cat #354230) and PBS was implanted by subcutaneous injection into the left flank of female, 4-5 week old nu/nu nude, Crl:NU-Foxn1^nu mice. Tumors were allowed to reach 250 mm^3 in size before randomization.
Mice were randomized as above into 8 groups of 10 mice each. […] Treatment continued for three weeks. Tumors were measured twice weekly and tumor volume calculated.

[3] = Population pharmacokinetic analysis of seribantumab, combined phase I and phase II studies, two-compartment model; type: in vivo, human
From the text: Covariate selection evaluated potential relationships between baseline covariates (sex, race, age, weight, intended-dose, and study/indication) and volume of distribution and clearance. The results indicated significant relationships between weight, sex, and clearance, with the final parameter estimates provided in Table 1. […] In the presence of the relationship between weight and clearance, no significant relationship between volume (V) and weight (WT) were observed.

[4] = Clinical studies of seribantumab co-administered with full doses of chemotherapy (MTD, safety); type: in vivo, human; conditions: co-administered with standard doses of pemetrexed, paclitaxel or cabazitaxel; 40 mg/kg loading dose then weekly 20 mg/kg
[5] = system: HRG positive (HRG+) tumors; assay: Previous randomized phase II clinical trials of seribantumab plus standard of care, by HRG expression; type: in vivo, human; conditions: seribantumab added to standard-of-care therapy; patients with HRG expression at or above threshold / HRG+ tumors
[6] = fixed effect, final population PK estimate, 499 patients

Molecule	effect of HRG on inhibition of cell viability by chemotherapy (HRG-induced resistance) [1]	tumor progression over time [2]	tumor growth, single agent [2]	further results
CC(=O)O[C@@]12CO[C@@H]1C[C@H](O)[C@@]1(C)C(=O)[C@H](O)C3=C(C)[C@@H](OC(=O)[C@H](O)[C@@H](NC(=O)OC(C)(C)C)c4ccccc4)C[C@@](O)([C@@H](OC(=O)c4ccccc4)[C@H]21)C3(C)C [docetaxel, 1,7β,10β-trihydroxy-9-oxo-5β,20-epoxytax-11-ene-2α,4,13α-triyl 4-acetate 2-benzoate 13-{(2R,3S)-3-[(tert-butoxycarbonyl)amino]-2-hydroxy-3-phenylpropanoate}]	induces resistance; also recorded: decreased			
Nc1ccn([C@@H]2O[C@H](CO)[C@@H](O)C2(F)F)c(=O)n1 [gemcitabine]		began to progress over time	inhibited tumor growth	
CCc1c2c(nc3ccc(OC(=O)N4CCC(N5CCCCC5)CC4)cc13)-c1cc3c(c(=O)n1C2)COC(=O)[C@]3(O)CC [irinotecan HCl]		began to progress over time	inhibited tumor growth	
CC(=O)O[C@H]1C(=O)[C@@]2(C)[C@H]([C@H](OC(=O)c3ccccc3)[C@]3(O)C[C@H](OC(=O)[C@H](O)[C@@H](NC(=O)c4ccccc4)c4ccccc4)C(C)=C1C3(C)C)[C@]1(OC(C)=O)CO[C@@H]1C[C@@H]2O [paclitaxel]		began to progress over time	inhibited tumor growth	
Nc1nc(=O)c2c(CCc3ccc(C(=O)N[C@@H](CCC(=O)O)C(=O)O)cc3)c[nH]c2[nH]1 [pemetrexed, (2S)-2-{[4-[2-(2-amino-4-oxo-1,7-dihydropyrrolo[2,3-d]pyrimidin-5-yl)ethyl]benzoyl]amino}pentanedioic acid]	induces resistance; also recorded: decreased			
B1			significantly suppressed tumor growth	CL [3, 6]: 3.15 L/wk; Q [3, 6]: 2.92 L/wk; V [3, 6]: 3.23 L; V2 [3, 6]: 2.68 L; Cov CL and V ([3]; random effect): 27%; Omega CL ([3]; random effect): 36%; Omega V ([3]; random effect): 37%; maximum tolerated dose (MTD) [4]: no MTD was identified; also recorded: no maximum tolerated dose (MTD) reached; progression-free survival (PFS) [5]: improved progression-free survival; also recorded: increased PFS
